Experimental findings from article doi:10.1101/2020.03.05.978833 are described below.

The series has as its system FasR wild-type (His6, EMSA) (Mycobacterium tuberculosis H37Rv). Put plainly: EMSA.

By Kd is commonly meant a measure of binding affinity in units of concentration. Low readings indicate a tighter complex, high ones a looser complex. With PfasMT promoter fragment (398 bp), the Kd came to 83 nM.
